The supplement of paper PMC9112550, “Optimization of the antimicrobial peptide Bac7 by deep mutational scanning” (BMC Biology, 2022)

Tested on: Escherichia coli TOP10
Experiment: shrunken log2 fold change of peptide-encoding DNA abundance (4.5 h post-induction vs induction); higher = less antimicrobial activity (less host growth inhibition)
Conditions: time post-induction: 4.5 h; library: site-saturation at positions 5, 18, 19, 20
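Further: peptides expressed intracellularly from a pBAD plasmid library in pooled LB shake-flask culture, induced with 0.3% L-arabinose, DNA abundance read by NGS, three biological replicates, DESeq2 with apeglm shrinkage.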

RRIRERPPRLPRPRPRPRVKPRP
shrunken log2 fold change: -0.207

RRIRMRPPRLPRPRPRPQASPRP
shrunken log2 fold change: 0.309

RRIRVRPPRLPRPRPRPSPWPRP
shrunken log2 fold change: 0.021

RRIRHRPPRLPRPRPRPFSDPRP
shrunken log2 fold change: -0.149

RRIRIRPPRLPRPRPRPKHGPRP
shrunken log2 fold change: -0.113

RRIRDRPPRLPRPRPRPHMEPRP
shrunken log2 fold change: 0.198

RRIRRRPPRLPRPRPRPCKLPRP
shrunken log2 fold change: 0.00583

RRIRMRPPRLPRPRPRPKFEPRP
shrunken log2 fold change: 0.109

RRIRVRPPRLPRPRPRPKRGPRP
shrunken log2 fold change: 0.054

RRIRSRPPRLPRPRPRPLSVPRP
shrunken log2 fold change: -0.0334

RRIRFRPPRLPRPRPRPTWCPRP
shrunken log2 fold change: -0.0549

RRIRNRPPRLPRPRPRPQIRPRP
shrunken log2 fold change: -0.0373

RRIRHRPPRLPRPRPRPYQRPRP
shrunken log2 fold change: 0.0916

RRIRARPPRLPRPRPRPWQNPRP
shrunken log2 fold change: 0.05

RRIRNRPPRLPRPRPRPGEAPRP
shrunken log2 fold change: 0.33

RRIRFRPPRLPRPRPRPFSIPRP
shrunken log2 fold change: -0.401

RRIRGRPPRLPRPRPRPPCIPRP
shrunken log2 fold change: 0.117

RRIRCRPPRLPRPRPRPHFLPRP
shrunken log2 fold change: -0.657

RRIRDRPPRLPRPRPRPIQHPRP
shrunken log2 fold change: -0.444

RRIRDRPPRLPRPRPRPQSLPRP
shrunken log2 fold change: -0.0208

RRIRRRPPRLPRPRPRPLALPRP
shrunken log2 fold change: 0.396

RRIRLRPPRLPRPRPRPLDQPRP
shrunken log2 fold change: 0.105

RRIRDRPPRLPRPRPRPWLTPRP
shrunken log2 fold change: -0.0223

RRIRKRPPRLPRPRPRPKIAPRP
shrunken log2 fold change: 0.35

RRIRHRPPRLPRPRPRPGIQPRP
shrunken log2 fold change: -0.277

RRIRWRPPRLPRPRPRPEQPPRP
shrunken log2 fold change: 0.157

RRIRKRPPRLPRPRPRPIGAPRP
shrunken log2 fold change: 0.479

RRIRARPPRLPRPRPRPAQFPRP
shrunken log2 fold change: 0.509

RRIRSRPPRLPRPRPRPVNKPRP
shrunken log2 fold change: -0.404

RRIRCRPPRLPRPRPRPNKAPRP
shrunken log2 fold change: -0.116

RRIRLRPPRLPRPRPRPPPDPRP
shrunken log2 fold change: 1.19

RRIRLRPPRLPRPRPRPYDLPRP
shrunken log2 fold change: -0.0724

RRIRERPPRLPRPRPRPTDQPRP
shrunken log2 fold change: -0.127

RRIRSRPPRLPRPRPRPWPIPRP
shrunken log2 fold change: 0.0295

RRIRHRPPRLPRPRPRPFICPRP
shrunken log2 fold change: 0.00486

RRIRDRPPRLPRPRPRPNGGPRP
shrunken log2 fold change: -0.0647

RRIRTRPPRLPRPRPRPPWRPRP
shrunken log2 fold change: 0.747

RRIRCRPPRLPRPRPRPFSYPRP
shrunken log2 fold change: -0.947

RRIRNRPPRLPRPRPRPKPTPRP
shrunken log2 fold change: 0.133

RRIRDRPPRLPRPRPRPDAFPRP
shrunken log2 fold change: 0.297

RRIRQRPPRLPRPRPRPWCMPRP
shrunken log2 fold change: -0.342

RRIRMRPPRLPRPRPRPPGQPRP
shrunken log2 fold change: 1.24

RRIRNRPPRLPRPRPRPLEPPRP
shrunken log2 fold change: 0.0692

RRIRPRPPRLPRPRPRPYYAPRP
shrunken log2 fold change: -0.709

RRIRHRPPRLPRPRPRPDLRPRP
shrunken log2 fold change: 0.0039

RRIRYRPPRLPRPRPRPPYAPRP
shrunken log2 fold change: -0.265

RRIRRRPPRLPRPRPRPPCNPRP
shrunken log2 fold change: 0.36

RRIRHRPPRLPRPRPRPSSWPRP
shrunken log2 fold change: -0.0281

RRIRPRPPRLPRPRPRPKAIPRP
shrunken log2 fold change: 0.11

RRIRTRPPRLPRPRPRPWWWPRP
shrunken log2 fold change: -0.0964

RRIRWRPPRLPRPRPRPYIRPRP
shrunken log2 fold change: -0.359

RRIRRRPPRLPRPRPRPAHHPRP
shrunken log2 fold change: 0.332

RRIRVRPPRLPRPRPRPMAGPRP
shrunken log2 fold change: -0.00674

RRIRTRPPRLPRPRPRPAACPRP
shrunken log2 fold change: 0.0816

RRIRSRPPRLPRPRPRPQMEPRP
shrunken log2 fold change: 0.0832

RRIRTRPPRLPRPRPRPNCNPRP
shrunken log2 fold change: -0.353

RRIRYRPPRLPRPRPRPDRVPRP
shrunken log2 fold change: -0.234

RRIRCRPPRLPRPRPRPQCPPRP
shrunken log2 fold change: -0.399

RRIRSRPPRLPRPRPRPIHGPRP
shrunken log2 fold change: -0.159

RRIRQRPPRLPRPRPRPGVLPRP
shrunken log2 fold change: 0.0476
